As a reminder, the stoichiometry N is a count of units in the complex or per binding partner.

Here are results for one substance from PMC6304933.

The target in the assay is Thermosynechococcus elongatus BP-1 Fed2 (Thermosynechococcus elongatus BP-1). In words: SDS/PAGE.

“Thermosynechococcus elongatus BP-1 Fed2 (natural protein)” showed a stoichiometry N of 2.
